Measurements from the supplement of paper PMC5998384.

Key:
[1] = test system: HeLa Kyoto; experiment: solubility in G1/S (NP-40 vs SDS abundance) (log2 ratio); higher = more soluble; settings: cell cycle stage: G1/S
[2] = test system: HeLa Kyoto; experiment: solubility change mitosis vs G1/S (difference of NP-40 vs SDS log2 ratios) (log2 ratio difference); higher = more soluble in mitosis
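Throughout, for solubility change mitosis vs G1/S (difference of NP-40 vs SDS log2 ratios): synchronized HeLa Kyoto cells (double thymidine block for G1/S, nocodazole release for mitosis), protein amounts in NP-40 versus SDS lysates quantified by mass spectrometry, three biological replicates.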
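Throughout, for solubility in G1/S (NP-40 vs SDS abundance): HeLa Kyoto cells arrested at G1/S by double thymidine block, proteins quantified by TMT10plex mass spectrometry in mild NP-40 versus SDS extracts, three biological replicates.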

Row | Substance | solubility in G1/S (log2) [1] | solubility change mitosis (log2) [2]
1 | MAVDVAEYHLSVIKSPPGWEVGVYAAGALALLGIAAVSLWKLWTSGSFPSPSPFPNYDYRYLQQKYGESCAEAREKRVPAWNAQRASTRGPPSRKGSLSIEDTFESISELGPLELMGRELDLAPYGTLRKSQSADSLNSISSVSNTFGQDFTLGQVEVSMEYDTASHTLNVAVMQGKDLLEREEASFESCFMRVSLLPDEQIVGISRIQRNAYSIFFDEKFSIPLDPTALEEKSLRFSVFGIDEDERNVSTGVVELKLSVLDLPLQPFSGWLYLQDQNKAADAVGEILLSLSYLPTAERLTVVVVKAKNLIWTNDKTTADPFVKVYLLQDGRKMSKKKTAVKRDDPNPVFNEAMIFSVPAIVLQDLSLRVTVAESSSDGRGDNVGHVIIGPSASGMGTTHWNQMLATLRRPVSMWHAVRRN [SYT12] | 0.0502 | -0.135
2 | MQQESERCRVRARRPDMALYVPKARRGAVLLKTGDEEESCGSPNSVVKEKQKESSLSQKEVFKDKPEARRLNINPDRKEHNCREEKKSSTKLRMDTCLQKTNRVCSKRGTTESKEVLSQGQQQGAPNAGVITNAPLQRHFKPKKVECLEVETTDVTGHERILLSQACLEISEAQVPSKPFQNVEFCDFSRHEPDGEAFEDKDLEGRIETDTKVLEILYEFPRVFSSVMKPENMIVPIKLSSDSEIVQQSMQTSDGILNPSSGGITTTSVPGSPDGVFDQTCVDFEVESVGGIANSTGFILDQKDTDSIPATMGHISLSESTNDTVSPVMIRECEKNDSTADELHVKHEPPDTAVLAHETHRDSGFKNVGDITNKACMMDTTGMSCSDHVTVDSPYVVAVRIADETSINTRSFSKFVGMSADATPLHVARSGNDTEDFSNPSACSDIYGESISSHFTESTGKLIESLSDCASSLPIKKIAGSNYNTFLDSELSMLNGTKVLSDSAVGIDLGSTGDTTEALHELRTAEEFKTEEQDDSGSIEFGVSFPDRESSSMETSIEPKATETSHTEGITAIEESWESMFNDDGDCLDPRLLQEGILMHIKPENHCSKLSGNTKSRESIQEPRSDYYNHEVPDIDLSDCEFPHVIEIYDFPQEFHTEDLLRVFCSYQKKGFDIKWVDDTHALGVFSSPITARDALGIKHTMVKIRPLSQATRAAKAKARAYAEFLQPAKERPETSAALARRLVISALGVRSKQSKTEREAELKKLQEARERKRLEAKQREDIWEGRDQSTV [R3HCC1L] | -0.118 | 0.112
3 | MGKAKVPASKRAPSSPVAKPGPVKTLTRKKNKKKKRFWKSKAREVSKKPASGPGAVVRPPKAPEDFSQNWKALQEWLLKQKSQAPEKPLVISQMGSKKKPKIIQQNKKETSPQVKGEEMPAGKDQEASRGSVPSGSKMDRRAPVPRTKASGTEHNKKGTKERTNGDIVPERGDIEHKKRKAKEAAPAPPTEEDIWFDDVDPADIEAAIGPEAAKIARKQLGQSEGSVSLSLVKEQAFGGLTRALALDCEMVGVGPKGEESMAARVSIVNQYGKCVYDKYVKPTEPVTDYRTAVSGIRPENLKQGEELEVVQKEVAEMLKGRILVGHALHNDLKVLFLDHPKKKIRDTQKYKPFKSQVKSGRPSLRLLSEKILGLQVQQAEHCSIQDAQAAMRLYVMVKKEWESMARDRRPLLTAPDHCSDDA [REXO4] | -0.936 | 0.875
4 | MAEASSANLGSGCEEKRHEGSSSESVPPGTTISRVKLLDTMVDTFLQKLVAAGSYQRFTDCYKCFYQLQPAMTQQIYDKFIAQLQTSIREEISDIKEEGNLEAVLNALDKIVEEGKVRKEPAWRPSGIPEKDLHSVMAPYFLQQRDTLRRHVQKQEAENQQLADAVLAGRRQVEELQLQVQAQQQAWQALHREQRELVAVLREPE [PMF1] | 0.135 | 0.643
5 | MKSSGLFPFLVLLALGTLAPWAVEGSGKSFKAGVCPPKKSAQCLRYKKPECQSDWQCPGKKRCCPDTCGIKCLDPVDTPNPTRRKPGKCPVTYGQCLMLNPPNFCEMDGQCKRDLKCCMGMCGKSCVSPVKA [SLPI] | -0.403 | 0.714
6 | MDLVGVASPEPGTAAAWGPSKCPWAIPQNTISCSLADVMSEQLAKELQLEEEAAVFPEVAVAEGPFITGENIDTSSDLMLAQMLQMEYDREYDAQLRREEKKFNGDSKVSISFENYRKVHPYEDSDSSEDEVDWQDTRDDPYRPAKPVPTPKKGFIGKGKDITTKHDEVVCGRKNTARMENFAPEFQVGDGIGMDLKLSNHVFNALKQHAYSEERRSARLHEKKEHSTAEKAVDPKTRLLMYKMVNSGMLETITGCISTGKESVVFHAYGGSMEDEKEDSKVIPTECAIKVFKTTLNEFKNRDKYIKDDFRFKDRFSKLNPRKIIRMWAEKEMHNLARMQRAGIPCPTVVLLKKHILVMSFIGHDQVPAPKLKEVKLNSEEMKEAYYQTLHLMRQLYHECTLVHADLSEYNMLWHAGKVWLIDVSQSVEPTHPHGLEFLFRDCRNVSQFFQKGGVKEALSERELFNAVSGLNITADNEADFLAEIEALEKMNEDHVQKNGRKAASFLKDDGDPPLLYDE [RIOK3] | 0.0978 | -0.00535
7 | MSLRRHIGNPEYLMKRIPQNPRYQHIKSRLDTGNSMTKYTEKLEEIKKNYRYKKDELFKRLKVTTFAQLIIQVASLSDQTLEVTAEEIQRLEDNDSAASDPDAETTARTNGKGNPGEQSPSPEQFINNAGAGDSSRSTLQSVISGVGELDLDKGPVKKAEPHTKDKPYPDCPFLLLDVRDRDSYQQCHIVGAYSYPIATLSRTMNPYSNDILEYKNAHGKIIILYDDDERLASQAATTMCERGFENLFMLSGGLKVLAQKFPEGLITGSLPASCQQALPPGSARKRSSPKGPPLPAENKWRFTPEDLKKIEYYLEEEQGPADHPSRLNQANSSGRESKVPGARSAQNLPGGGPASHSNPRSLSSGHLQGKPWK [CEP41] | 0.311 | 0.231
8 | ZFYVE26 | 0.0351 | -0.0176
9 | MEDERSFSDICGGRLALQRRYYSPSCREFCLSCPRLSLRSLTAVTCTVWLAAYGLFTLCENSMILSAAIFITLLGLLGYLHFVKIDQETLLIIDSLGIQMTSSYASGKESTTFIEMGKVKDIVINEAIYMQKVIYYLCILLKDPVEPHGISQVVPVFQSAKPRLDCLIEVYRSCQEILAHQKATSTSP [PIGH] | -0.116 | 0.146
10 | MPAPPCASCHAARAALRRPLSGQALCGACFCAAFEAEVLHTVLAGRLLPPGAVVAVGASGGKDSTVLAHVLRALAPRLGISLQLVAVDEGIGGYRDAALAAVRRQAARWELPLTVVAYEDLFGGWTMDAVARSTAGSGRSRSCCTFCGVLRRRALEEGARRVGATHIVTGHNADDMAETVLMNFLRGDAGRLARGGGLGSPGEGGALPRCRPLQFASQKEVVLYAHFRRLDYFSEECVYAPEAFRGHARDLLKRLEAARPSAVLDLVHSAERLALAPAARPPRPGACSRCGALASRALCQACALLDGLNRGRPRLAIGKGRRGLDEEATPGTPGDPARPPASKAVPTF [CTU1] | 0.107 | 0.0895
11 | MSSKMVISEPGLNWDISPKNGLKTFFSRENYKDHSMAPSLKELRVLSNRRIGENLNASASSVENEPAVSSATQAKEKVKTTIGMVLLPKPRVPYPRFSRFSQREQRSYVDLLVKYAKIPANSKAVGINKNDYLQYLDMKKHVNEEVTEFLKFLQNSAKKCAQDYNMLSDDARLFTEKILRACIEQVKKYSEFYTLHEVTSLMGFFPFRVEMGLKLEKTLLALGSVKYVKTVFPSMPIKLQLSKDDIATIETSEQTAEAMHYDISKDPNAEKLVSRYHPQIALTSQSLFTLLNNHGPTYKEQWEIPVCIQVIPVAGSKPVKVIYINSPLPQKKMTMRERNQIFHEVPLKFMMSKNTSVPVSAVFMDKPEEFISEMDMSCEVNECRKIESLENLYLDFDDDVTELETFGVTTTKVSKSPSPASTSTVPNMTDAPTAPKAGTTTVAPSAPDISANSRSLSQILMEQLQKEKQLVTGMDGGPEECKNKDDQGFESCEKVSNSDKPLIQDSDLKTSDALQLENSQEIETSNKNDMTIDILHADGERPNVLENLDNSKEKTVGSEAAKTEDTVLCSSDTDEECLIIDTECKNNSDGKTAVVGSNLSSRPASPNSSSGQASVGNQTNTACSPEESCVLKKPIKRVYKKFDPVGEILKMQDELLKPISRKVPELPLMNLENSKQPSVSEQLSGPSDSSSWPKSGWPSAFQKPKGRLPYELQDYVEDTSEYLAPQEGNFVYKLFSLQDLLLLVRCSVQRIETRPRSKKRKKIRRQFPVYVLPKVEYQACYGVEALTESELCRLWTESLLHSNSSFYVGHIDAFTSKLFLLEEITSEELKEKLSALKISNLFNILQHILKKLSSLQEGSYLLSHAAEDSSLLIYKASDGKVTRTAYNLYKTHCGLPGVPSSLSVPWVPLDPSLLLPYHIHHGRIPCTFPPKSLDTTTQQKIGGTRMPTRSHRNPVSMETKSSCLPAQQVETEGVAPHKRKIT [ICE2] | -0.234 | 0.281
12 | MCARMAGRTTAAPRGPYGPWLCLLVALALDVVRVDCGQAPLDPVYLPAALELLDAPEHFRVQQVGHYPPANSSLSSRSETFLLLQPWPRAQPLLRASYPPFATQQVVPPRVTEPHQRPVPWDVRAVSVEAAVTPAEPYARVLFHLKGQDWPPGSGSLPCARLHATHPAGTAHQACRFQPSLGACVVELELPSHWFSQASTTRAELAYTLEPAAEGPGGCGSGEENDPGEQALPVGGVELRPADPPQYQEVPLDEAVTLRVPDMPVRPGQLFSATLLLRHNFTASLLTLRIKVKKGLHVTAARPAQPTLWTAKLDRFKGSRHHTTLITCHRAGLTEPDSSPLELSEFLWVDFVVENSTGGGVAVTRPVTWQLEYPGQAPEAEKDKMVWEILVSERDIRALIPLAKAEELVNTAPLTGVPQHVPVRLVTVDGGGALVEVTEHVGCESANTQVLQVSEACDAVFVAGKESRGARGVRVDFWWRRLRASLRLTVWAPLLPLRIELTDTTLEQVRGWRVPGPAEGPAEPAAEASDEAERRARGCHLQYQRAGVRFLAPFAAHPLDGGRRLTHLLGPDWLLDVSHLVAPHARVLDSRVASLEGGRVVVGREPGVTSIEVRSPLSDSILGEQALAVTDDKVSVLELRVQPVMGISLTLSRGTAHPGEVTATCWAQSALPAPKQEVALSLWLSFSDHTVAPAELYDRRDLGLSVSAEEPGAILPAEEQGAQLGVVVSGAGAEGLPLHVALHPPEPCRRGRHRVPLASGTAWLGLPPASTPAPALPSSPAWSPPATEATMGGKRQVAGSVGGNTGVRGKFERAEEEARKEETEAREEEEEEEEEMVPAPQHVTELELGMYALLGVFCVAIFIFLVNGVVFVLRYQRKEPPDSATDPTSPQPHNWVWLGTDQEELSRQLDRQSPGPPKGEGSCPCESGGGGEAPTLAPGPPGGTTSSSSTLARKEAGGRRKRVEFVTFAPAPPAQSPEEPVGAPAVQSILVAGEEDIRWVCEDMGLKDPEELRNYMERIRGSS [TMEM132A] | -0.00491 | -0.0467
